Numbering of substitutions follows the chain as printed. Read-outs that look alike come from different tables or passages of the source. Blank lines part the entries; values can stand above or below the binder they belong to.
Experiments:
[1] = biological target: T1, sIL-6R (soluble IL-6 receptor; SBH Sciences) (human, UniProt P08887 20-365); assay: SPR (BIAcore 3000), antibody on chip, sIL-6R analyte, 25 C
T1 construct: also called human IL-6R
T1 sequence: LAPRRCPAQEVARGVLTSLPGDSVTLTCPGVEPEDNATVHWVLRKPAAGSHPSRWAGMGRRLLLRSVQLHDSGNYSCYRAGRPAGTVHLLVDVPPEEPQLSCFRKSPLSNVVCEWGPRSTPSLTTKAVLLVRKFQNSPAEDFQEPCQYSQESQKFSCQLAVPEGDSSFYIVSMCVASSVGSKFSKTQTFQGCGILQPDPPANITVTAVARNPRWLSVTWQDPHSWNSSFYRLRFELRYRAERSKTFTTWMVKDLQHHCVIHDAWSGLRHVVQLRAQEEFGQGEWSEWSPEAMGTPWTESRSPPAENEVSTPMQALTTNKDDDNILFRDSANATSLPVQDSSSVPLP
Procedure: (§1) All SPR measurements were performed on a BIAcore 3000 instrument (GE Biosciences, Piscataway, N.J.). BIAcore Software-BIAcore 3000 Control Software V3.2 was used for the operation and control of the BIAcore 3000 instrument. BiaEvaluation Software V4.1 was used for the analysis of SPR data from the BIAcore 3000 instrument and data was plotted using Graph Pad Prism Software Version 5. […] The indicated antibodies were used as the ligand for the construction of the reference channel of the chip. […] Each sample was injected for 3 min at a flow rate of 30 μL/min to allow for binding to chip-bound antibody. Next, binding buffer without analyte was sent over the chip at the same flow rate to allow for dissociation of bound analyte. After 500s, remaining bound analyte was removed by injecting regeneration solution (1M Formic acid). Data was analyzed by using the Kinetics Wizard and the manual fitting programs that are both included with the BiaEvaluation Software V4.1.

[2] = biological target: T1, sIL-6R (soluble IL-6 receptor; SBH …); assay: as above; remark: listed apart in the source
Procedure: as §1

[3] = biological target: T1, sIL-6R (soluble IL-6 receptor; SBH …); assay: SPR (BIAcore 3000), antibody on chip, sIL-6R analyte, pH 7.4; pH 7.4
Procedure: as §1
(§2) SPR measurements at pH 7.4 and pH 6.0 were performed in parallel and KD values calculated according to the protocol as detailed in Example 1. The pH dependence is calculated as the ratio between the KD value at pH 6.0 and the KD value at pH 7.4, which indicates the fold of affinity decrease from the pH7.4 to pH6.0. […]

[4] = biological target: T1, sIL-6R (soluble IL-6 receptor; SBH …); assay: as above; remark: listed apart in the source
[5] = biological target: T1, sIL-6R (soluble IL-6 receptor; SBH …); assay: SPR (BIAcore 3000), antibody on chip, sIL-6R analyte, pH 7.4
Procedure: as §1
(§3) SPR measurements at pH 7.4 and pH 6.0 were performed in parallel and KD values calculated according to the protocol as detailed in Example 1. The pH dependence is calculated as the ratio between the KD value at pH 6.0 and the KD value at pH 7.4, which indicates the fold of affinity decrease from the pH7.4 to pH6.0. If the pH dependence of a subject antibody described herein is over 1, it means that the antibody binds to IL-6R in such a pH-dependent manner that its binding to IL-6R at pH7.4 is higher than at pH6.0. If the pH dependence of a subject antibody described herein is lower than 1, it means that the antibody binds to IL-6R in such a pH-dependent manner that its binding to IL-6R at pH6.0 is higher than at pH7.4.

[6] = biological target: T1, sIL-6R (soluble IL-6 receptor; SBH …); assay: as above; remark: listed apart in the source
Procedure: as §1, §3

[7] = biological target: T1, sIL-6R (soluble IL-6 receptor; SBH …); assay: SPR (BIAcore 3000), antibody on chip, sIL-6R analyte, 25 C; remark: listed apart in the source
Procedure: as §1

[8] = biological target: T2, IL-6 receptor on DS-1 cells (ATCC CRL 11102) (UniProt P08887 20-468, limits assumed); assay: cell-based or functional assay
T2 sequence (looked up): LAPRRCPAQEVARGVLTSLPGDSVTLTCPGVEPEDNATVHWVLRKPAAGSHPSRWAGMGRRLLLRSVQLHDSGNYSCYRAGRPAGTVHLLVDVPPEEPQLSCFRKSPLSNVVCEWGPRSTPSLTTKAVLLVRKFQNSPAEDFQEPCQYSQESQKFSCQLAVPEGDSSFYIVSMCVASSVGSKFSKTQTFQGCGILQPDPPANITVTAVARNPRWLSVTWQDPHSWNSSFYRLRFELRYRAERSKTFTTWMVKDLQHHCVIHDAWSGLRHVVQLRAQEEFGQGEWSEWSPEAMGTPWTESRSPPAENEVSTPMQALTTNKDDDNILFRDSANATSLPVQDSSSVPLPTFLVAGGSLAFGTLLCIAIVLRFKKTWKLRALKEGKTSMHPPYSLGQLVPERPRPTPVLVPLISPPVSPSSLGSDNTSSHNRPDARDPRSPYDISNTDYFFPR

[9] = biological target: T1, sIL-6R (soluble IL-6 receptor; SBH …); assay: SPR (BIAcore 3000), antibody on chip, sIL-6R analyte, pH 6.0
Procedure: as §1, §3

[10] = biological target: T1, sIL-6R (soluble IL-6 receptor; SBH …); assay: SPR; ratio of KD at pH 6.0 to KD at pH 7.4; averaged between the two batches
Procedure: as §1, §2

[11] = biological target: T1, sIL-6R (soluble IL-6 receptor; SBH …); assay: SPR (BIAcore 3000), antibody on chip, sIL-6R analyte, pH 6.0; remark: listed apart in the source
Procedure: as §1, §3

[12] = biological target: T1, sIL-6R (soluble IL-6 receptor; SBH …); assay: SPR (BIAcore 3000), antibody on chip, sIL-6R analyte, 25 C; remark: listed apart in the source
How it was run: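 Antibody immobilized on chip, sIL-6R injected as analyte for 3 min at 30 μL/min, then buffer-only dissociation for 500 s. Surface regenerated with 1M formic acid between cycles. Kinetics obtained by fitting sensorgrams with Kinetics Wizard and manual fitting.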

[13] = biological target: T1, sIL-6R (soluble IL-6 receptor; SBH …); assay: as above; remark: listed apart in the source
Procedure: as §1

[14] = biological target: T1, sIL-6R (soluble IL-6 receptor; SBH …); assay: SPR; ratio of KD at pH 6.0 to KD at pH 7.4
Procedure: as §1, §3

B1: Tocilizumab (antibody, human IgG1, kappa, V domains shown)
VH: QVQLQESGPGLVRPSQTLSLTCTVSGYSITSDHAWSWVRQPPGRGLEWIGYISYSGITTYNPSLKSRVTMLRDTSKNQFSLRLSSVTAADTAVYYCARSLARTTAMDYWGQGSLVTVSS
VL: DIQMTQSPSSLSASVGDRVTITCRASQDISSYLNWYQQKPGKAPKLLIYYTSRLHSGVPSRFSGSGSGTDFTFTISSLQPEDIATYYCQQGNTLPYTFGQGTKVEIKR
notes: also called 25; 25(control)
Kd [1]: 1.34 nM
Relative Affinity [1]: 1 fold vs 25 (Tocilizumab)
koff [1]: 0.000252 s⁻¹
kon [1]: 188000 M⁻¹ s⁻¹
Kd [2]: 2.8 nM
Relative Affinity [2]: 1 fold vs 25 (Tocilizumab)
koff [2]: 0.00035 s⁻¹
kon [2]: 125000 M⁻¹ s⁻¹
kon [3]: 122000 M⁻¹ s⁻¹
Kd [4]: 3.16 nM
koff [5]: 0.000341 s⁻¹
kon [5]: 108000 M⁻¹ s⁻¹
Kd [6]: 2.85 nM
koff [6]: 0.000349 s⁻¹
Kd [7]: 1.71 nM
Relative Affinity [7]: 1 fold vs 25 (Tocilizumab)
koff [7]: 0.000353 s⁻¹
kon [7]: 207000 M⁻¹ s⁻¹
IC50 (µg/ml), inhibition of DS-1 cell proliferation, MTS assay, IL6 2 ng/mL [8]: 0.33 µg/mL
Kd [9]: 2 nM
koff [9]: 0.000564 s⁻¹
kon [9]: 283000 M⁻¹ s⁻¹
pH dependence (Fold of affinity decrease) [10]: 0.48 fold
Kd [11]: 1.79 nM
koff [11]: 0.000566 s⁻¹
kon [11]: 316000 M⁻¹ s⁻¹
Kd [12]: 3.16 nM
Relative Affinity [12]: 1 fold vs 25 (Tocilizumab)
koff [12]: 0.000341 s⁻¹
kon [12]: 108000 M⁻¹ s⁻¹
Kd [13]: 2.85 nM
Relative Affinity [13]: 1 fold vs 25 (Tocilizumab)
koff [13]: 0.000349 s⁻¹
kon [13]: 122000 M⁻¹ s⁻¹

B3: 202# (antibody, human IgG1, kappa, V domains shown)
VH: B1 VH with S99V, T103I
VL: B1 VL with Q89G, T93R
pH dependence (Fold of affinity decrease) [14]: 0.74 fold
Kd [2]: 0.0236 nM
Relative Affinity [2]: 119 fold vs 25 (Tocilizumab)
koff [2]: 3.17e-06 s⁻¹
kon [2]: 134000 M⁻¹ s⁻¹
Kd [6]: 0.0288 nM
koff [6]: 2.46e-06 s⁻¹
kon [6]: 85300 M⁻¹ s⁻¹
IC50 (µg/ml), inhibition of DS-1 cell proliferation, MTS assay, IL6 2 ng/mL [8]: 0.0686 µg/mL
Kd [9]: 0.0214 nM
koff [9]: 6.1e-06 s⁻¹
kon [9]: 284000 M⁻¹ s⁻¹
Kd [13]: 0.0288 nM
Relative Affinity [13]: 99 fold vs 25 (Tocilizumab)
koff [13]: 2.46e-06 s⁻¹
kon [13]: 85300 M⁻¹ s⁻¹

Now those with a lower Kd [13], led by results:

IC50 (µg/ml), inhibition of DS-1 cell proliferation, MTS assay, IL6 2 ng/mL [8]: 0.0362 µg/mL
Kd [13]: 0.0143 nM
Relative Affinity [13]: 199 fold vs 25 (Tocilizumab)
koff [13]: 3.28e-06 s⁻¹
kon [13]: 229000 M⁻¹ s⁻¹
B2: 204# (antibody, human IgG1, kappa, V domains shown)
VH: B1 VH with Y51F, I57M, S99C, T103I
VL: B1 VL with Q89G, T93R

pH dependence (Fold of affinity decrease) [14]: 28.4 fold
Kd [2]: 0.000587 nM
Relative Affinity [2]: 4770 fold vs 25 (Tocilizumab)
koff [2]: 1.35e-07 s⁻¹
kon [2]: 230000 M⁻¹ s⁻¹
Kd [6]: 0.00075 nM
koff [6]: 1.41e-07 s⁻¹
kon [6]: 189000 M⁻¹ s⁻¹
IC50 (µg/ml), inhibition of DS-1 cell proliferation, MTS assay, IL6 2 ng/mL [8]: 0.0339 µg/mL
Kd [9]: 0.0213 nM
koff [9]: 8.78e-06 s⁻¹
kon [9]: 412000 M⁻¹ s⁻¹
Kd [13]: 0.00075 nM
Relative Affinity [13]: 3800 fold vs 25 (Tocilizumab)
koff [13]: 1.41e-07 s⁻¹
kon [13]: 189000 M⁻¹ s⁻¹
B4: 206# (antibody, human IgG1, kappa, V domains shown)
VH: B1 VH with Y51F, I57M, T103I
VL: B1 VL with Q89G, T93R
notes: also called Sample # 206
